Consider 4 molecules from US9757451B2, “Use of RANK/RANKL antagonists for treating muscular dystrophy” (UNIVERSITÉ LAVAL, priority 2011, dated 2017).

Entries after “also recorded” stand apart in the source; their conditions may differ.

For data set [1] the following is noted: cited from earlier work.
In data set [2] the test system is C2C12 myotubes. The experiment in a line: Dexamethasone-induced myotube atrophy (myotube diameter) in vitro. Type of data set: cell-based, mouse. The procedure:
FIG. 9. […] Myotubes were incubated with DEX (1,000 nM) and/or OPG at 10 ng/mL or 100 ng/mL. OPG used and tested in vivo and in vitro was bought from R&D systems (Catalog number:459-MO).
To further investigate how RANK/RANKL influences muscle function, the present inventor(s) have assessed the effect of DEX on C2C12 myoblasts grown in DMEM containing 10% FBS and 1% antibiotic-antimycotic in 96-well plates at a density of 3,000 myoblasts/well. The present inventor(s) used this mouse myoblast cell line because the present inventor(s) are very familiar with it and because it easily differentiates into myotubes and responds to RANKL stimulation. Confluent myoblasts on coverslips (approximately 300,000/well) were incubated in DMEM containing 2% horse serum for five days to allow them to differentiate into myotubes. The myotubes were then exposed to […]. This concentration was sufficient to induce a 15-20% decrease in myotube diameter relative to control myotubes after 48 h. Myotubes in other wells were treated or not with 1 mM DEX combined with 100 ng/ml of OPG. In the experiment proposed herein, myotube atrophy were determined by measuring the diameters of the myotubes at 100× magnification using a light microscope (Nikon). Three different sites in each well were blindly identified and observed throughout the experiment. The average were considered as a single value. Myotube diameters were quantified using the ImageJ digital imaging system (NIH). The diameters of 150 to 200 myotubes per well were measured after 24 and 48 h. Measurements were performed in triplicate for all the experimental conditions to enable statistical comparisons between groups.

Another data set concerns mdx mice. Kind of data set: Contractile and physical properties of SOL and EDL muscles of mdx mice injected with OPG. It counts as in vivo. Conditions: for half relaxation time (½ RT) / maximal absolute force (Po) / maximal twitch tension (Pt) / time to peak tension (TPT) / Muscle weight: mdx, mean +/- sem. From the text:
(§1) Muscle contractility measurements were used to test the involvement of the RANK/RANKL pathway in muscle dysfunction. In vitro measurements of muscle contractility are the gold standard for assessing muscle function and were be performed as described previously^68,69. […] Twitch and tetanic contractions were elicited, and the following measurements recorded: maximum twitch tension (Pt), time to peak tension (TPT), one-half relaxation time (RT 1/2), and maximum tetanic tension (Po). To assess muscle fatigue, EDL and SOL muscles from RANK^fl/fl and RANK^del/fl mice were stimulated at 1 train/s at 50 Hz, and the time to the loss of 30% of their initial force recorded. […] Consistent with this observation that RANK^del/fl mice expressed a faster muscle phenotype than wild type, SOL and EDL muscles from these mice were less resistant to a fatigue protocol (FIGS. 5,6). The muscles were weighed without their tendons to quantify muscle mass and to allow the calculation of the maximum specific Po (N/cm^2).
Male mdx mice (C57BL/10ScSnJ) were purchased from Jackson Laboratories. Mdx mice were then injected i.p. with OPG (0.3 mg/kg/day) for 10 days during the 3rd and 4th week of life. Body weight were measured every 2 days and drug volume were adjusted accordingly. This concentration of OPG is selected because it is known to inhibit RANKL and bone resorption.
(§2) SOL and EDL muscles from male wild type and mdx mice were dissected and contractile properties analyzed at 4 weeks of age.

The subject of another data set is C57BL/10J mice. Kind of data set: Contractile and physical properties of SOL and EDL muscles of C57BL/10J control mice injected with OPG. It counts as in vivo. Conditions: OPG 0.3 mg/kg/day i.p. 10 days, mean +/- sem.
Text: as §1, §2

For data set [3], the system named is C2C12 myotubes. The experiment in a line: Ca2+ concentration in myotubes measured with fluo-4. It counts as cell-based, mouse. The settings on record: RANKL 100 ng/ml, 10 min; myotubes 5 days in differentiation medium. Here is the method: FIG. 17: RANK/RANKL interaction influences Ca^2+ homeostasis and activates different cell signaling pathways. […] Data are presented as mean+/−sem.
C2C12 myotubes fully differentiated were incubated with fluo-4 to measure Ca^2+ concentration. C2C12 Myotubes were then exposed to RANKL (100 ng/ml) for 10 min. […] (FIG. 17A). Serca activity in sham and denervated RANK^del/fl compared to sham and denervated RANK^fl/fl EDL muscles were then measured by spectrofluorimetric analysis. SERCA activity increased by more than 2-fold in EDL muscles from sham and denervated RANK^del/fl mice (FIG. 17B). […] Graph representing the difference in the expression of SERCA isoforms for each fiber type for SOL and EDL muscles compared to sham RANK^fl/fl mice. (FIG. 17E). […] Data are presented as mean+/−sem.

Where [4] appears, read: EDL muscle ex vivo, OPG 0.3 mg/kg/day i.p. 10 days.
[5] abbreviates: SOL muscle ex vivo, OPG 0.3 mg/kg/day i.p. 10 days.

“Denosumab: full human antibody that shares the pharmalogical attributes of OPG; RANKL antagonist”: the “half-life relative to OPG” value in data set [1] is on record as “significant longer half-life”.

As for `C[C@@H]1C[C@H]2[C@@H]3CCC4=CC(=O)C=C[C@]4(C)[C@@]3(F)[C@@H](O)C[C@]2(C)[C@@]1(O)C(=O)CO` [DEX, dexamethasone, reference compound], the “decrease in myotube diameter relative to control myotubes” value in the data set on C2C12 myotubes [2] (1 mM DEX, after 48 h) was 15-20%.

B1: OPG: Osteoprotegerin, binds RANKL and inhibits the RANK/RANKL interaction; bought from R&D systems (Catalog number:459-MO) (protein, UniProt O08712 22-401, looked up)
Tumor necrosis factor …: ETLPPKYLHYDPETGHQLLCDKCAPGTYLKQHCTVRRKTLCVPCPDHSYTDSWHTSDECVYCSPVCKELQSVKQECNRTHNRVCECEEGRYLEIEFCLKHRSCPPGSGVVQAGTPERNTVCKKCPDGFFSGETSSKAPCIKHTNCSTFGLLLIQKGNATHDNVCSGNREATQKCGIDVTLCEEAFFRFAVPTKIIPNWLSVLVDSLPGTKVNAESVERIKRRHSSQEQTFQLLKLWKHQNRDQEMVKKIIQDIDLCESSVQRHLGHSNLTTEQLLALMESLPGKKISPEEIERTRKTCKSSEQLLKLLSLWRIKNGDQDTLKGLMYALKHLKTSHFPKTVTHSLRKTMRFLHSFTMYRLYQKLFLEMIGNQVQSVKISCL
For B1, the “effect on DEX-induced atrophic and phenotype change process in myotubes” value with C2C12 myotubes [2] (1 mM DEX, >100 ng/ml of OPG, preliminary results) is “reversed the atrophic and phenotype change process”. For the same molecule, the “effect on DEX-induced myotube atrophy” value in the data set on C2C12 myotubes [2] (DEX 1,000 nM, OPG 100 ng/ml, 24 and 48 h (FIG. 9)) is “protects against DEX-induced myotube atrophy; also recorded: totally reversed the atrophic process; also recorded: prevents myotube atrophy”. The “half relaxation time (½ RT)” value in the data set on mdx mice (setting [4]) came out at 20.67 ± 2.18 ms; with mdx mice (setting [5]), 38 ± 3.3 ms; with C57BL/10J mice (EDL muscle ex vivo), 20.3 ± 2.4 ms; with C57BL/10J mice (SOL muscle ex vivo), 46.8 ± 5.7 ms. Also, the “maximal absolute force (Po)” value with mdx mice (setting [4]) was found to be 10.3 ± 1.3 g; with mdx mice (setting [5]) it was 8.02 ± 2.99 g; in the data set with C57BL/10J mice (EDL muscle ex vivo), 14.53 ± 3.44 g; in the data set with C57BL/10J mice (SOL muscle ex vivo), 10.79 ± 0.27 g. Further, the “maximal twitch tension (Pt)” value in the data set with mdx mice (setting [4]) worked out at 2.01 ± 0.2 g; in the data set on mdx mice (setting [5]), 1.2 ± 0.18 g; with C57BL/10J mice (EDL muscle ex vivo), 2.52 ± 0.26 g; in the data set with C57BL/10J mice (SOL muscle ex vivo) it was 1.8 ± 0.06 g. Besides, the “time to peak tension (TPT)” value with mdx mice (setting [4]) worked out at 29.75 ± 7.47 ms; with mdx mice (setting [5]), 35.2 ± 2.43 ms; in the data set with C57BL/10J mice (EDL muscle ex vivo), 25.8 ± 2.6 ms; in the data set on C57BL/10J mice (SOL muscle ex vivo) it was 50.75 ± 3.83 ms. In addition, the Muscle weight with mdx mice (EDL muscle, OPG 0.3 mg/kg/day i.p. 10 days) came to 4.96 ± 0.93 mg; in the data set on mdx mice (SOL muscle, OPG 0.3 mg/kg/day i.p. 10 days), 4.90 ± 0.72 mg; in the data set on C57BL/10J mice (EDL muscle), 4.18 ± 0.25 mg; with C57BL/10J mice (SOL muscle), 3.73 ± 0.20 mg. In the data set with mdx mice (male mdx mice, OPG 0.3 mg/kg daily 10 days from day 18 after birth, vs PBS), the “increase of maximum force production (maximum specific tetanic force) of EDL muscles” value is on record as “more than 200%”. Moreover, the “specific muscle force of EDL muscles” value with mdx mice (young mdx mice (28 days), OPG 0.3 mg/kg/day i.p. 10 days, compared to PBS) was “Specific muscle force preservation is also observed”.

B2: RANKL: receptor-activator of nuclear factor κβ ligand, added at 100 ng/ml to C2C12 myotubes (protein, UniProt O35235 139-316, looked up)
Tumor necrosis factor ligand …: FSGAPAMMEGSWLDVAQRGKPEAQPFAHLTINAASIPSGSHKVTLSSWYHDRGWAKISNMTLSNGKLRVNQDGFYYLYANICFRHHETSGSVPTDYLQLMVYVVKTSIKIPSSHNLMKGGSTKNWSGNSEFHFYSINVGGFFKLRAGEEISIQVSNPSLLDPDQDATYFGAFKVQDID
As for B2, the “effect on DEX-induced myotube atrophy” value in the data set with C2C12 myotubes [2] (RANKL with DEX) is given as “exacerbates”. For the same molecule, the “cytosolic Ca2+ (mean fluorescence intensity of fluo-4)” value with C2C12 myotubes [3] is “increased the release of cytosolic Ca^2+; also recorded: increased mean fluorescence intensity of fluo-4”.
